Data reported in paper PMC8406365 (Acta Biochimica et Biophysica Sinica, 2021).

Molecular target: SENP3 (endogenous, LO2 hepatocytes) (human (endogenous in LO2), UniProt Q9H4L4 1-574)
Assay: FRET or BRET

Sequence of SENP3 (endogenous, LO2 hepatocytes) (Q9H4L4 whole entry): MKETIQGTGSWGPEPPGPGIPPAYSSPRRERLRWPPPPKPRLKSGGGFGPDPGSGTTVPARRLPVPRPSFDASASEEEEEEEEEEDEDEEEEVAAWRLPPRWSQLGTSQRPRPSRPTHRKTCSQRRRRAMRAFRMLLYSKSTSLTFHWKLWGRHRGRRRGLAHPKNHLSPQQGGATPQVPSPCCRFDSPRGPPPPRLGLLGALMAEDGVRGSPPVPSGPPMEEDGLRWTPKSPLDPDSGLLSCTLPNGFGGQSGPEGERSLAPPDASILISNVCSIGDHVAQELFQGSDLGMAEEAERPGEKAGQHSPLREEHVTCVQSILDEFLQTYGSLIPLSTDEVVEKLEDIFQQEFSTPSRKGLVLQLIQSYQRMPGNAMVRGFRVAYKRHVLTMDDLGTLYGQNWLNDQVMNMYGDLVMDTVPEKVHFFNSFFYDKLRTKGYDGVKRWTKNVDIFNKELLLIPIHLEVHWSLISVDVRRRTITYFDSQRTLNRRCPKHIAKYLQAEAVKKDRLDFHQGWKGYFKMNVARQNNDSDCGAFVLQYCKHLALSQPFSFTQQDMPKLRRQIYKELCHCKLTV

- FRET efficiency: ~25%
B1: ATP synthase subunit (ATP5F1A) (natural protein, human (endogenous in LO2), UniProt P25705 44-553, looked up)
chain: QKTGTAEMSSILEERILGADTSVDLEETGRVLSIGDGIARVHGLRNVQAEEMVEFSSGLKGMSLNLEPDNVGVVVFGNDKLIKEGDIVKRTGAIVDVPVGEELLGRVVDALGNAIDGKGPIGSKTRRRVGLKAPGIIPRISVREPMQTGIKAVDSLVPIGRGQRELIIGDRQTGKTSIAIDTIINQKRFNDGSDEKKKLYCIYVAIGQKRSTVAQLVKRLTDADAMKYTIVVSATASDAAPLQYLAPYSGCSMGEYFRDNGKHALIIYDDLSKQAVAYRQMSLLLRRPPGREAYPGDVFYLHSRLLERAAKMNDAFGGGSLTALPVIETQAGDVSAYIPTNVISITDGQIFLETELFYKGIRPAINVGLSVSRVGSAAQTRAMKQVAGTMKLELAQYREVAAFAQFGSDLDAATQQLLSRGVRLTELLKQGQYSPMAIEEQVAVIYAGVRGYLDKLEPSKITKFENAFLSHVVSQHQALLGTIRADGKISEQSDAKLKEIVTNFLAGFEA
